Values joined by “and” are separate entries in the source; they are usually repeats but may differ in a detail not shown here. Equal values may be shown once. Read-outs that look alike come from different tables or passages of the source.
Legend:
Assay in all cases: native MS
native MS = biological target: the molecule itself
[1] = biological target: T1, recombinant form of human platelet factor 4 (PF4), tetramer (human, UniProt P02776)
[2] = biological target: T1, recombinant form of human platelet …; remark: listed apart in the source

B1: recombinant form of human platelet factor 4 (PF4), tetramer (natural protein)
chain: EAEEDGDLQCLCVKTTSQVRPRHITSLEVIKAGPHCPTAQLIATLKNGRKICLDLQAPLYKKIIKKLLES
Native MS
  stoichiometry N: 4 chains per oligomer

B2: KKO monoclonal anti-PF4/heparin antibody (antibody, V domains shown)
VH: VQLQQSGAELVKPGASVKLSCKASGYTFTNYFIYWVKQRPGQGLEWIGEINPRNGDTDFNEKFESRATLTVDKSSSTAYMQLSSLTSEDSAIYYCTRSPYGNNYGFTYWGQGTLVTVSA
VL: DIQMIQSQKFMSTSVGDRVTVTCKASQNVGTNVAWYQQKPGQSPNALIYSASYRYSGVPDRFTGSGSGTDFTLTITNVQSEDLADYFCQQYNSYPLTFGTGTKLDLK
[1]
  stoichiometry N: 1 PF4 tetramer (with dp20) per KKO and 2 PF4 tetramers (with dp20) per KKO
[2]
  stoichiometry N: 1 KKO per complex of two PF4 tetramers on one heparin chain and 2 KKO per complex of three PF4 tetramers on one heparin chain

Source: paper doi:10.1101/2023.02.11.528150 (bioRxiv, 2023)
